Test results published in patent CN114805559A (UNIV ZHEJIANG, dated 2022).

Target: 新型冠状病毒SARS-CoV-2受体结合域RBD重组蛋白 (pET-28a(+)/RBD, E. coli Rosetta) (SARS-CoV-2, UniProt P0DTC2 319-541)
Experiment: BLI (Fortebio), KD = Kdis/Kon

B1: 全人源抗新冠病毒受体结合域单链抗体No4 (purified recombinant scFv from pET-30a(+)/anti-RBD No4 in E. coli Rosetta) (scFv, not shown: small tags and cut ends)
scFv: RSSCRNPGGALVQPGGSLRLSCETSGFTFSRYWMNWFRQAPGKGLVWVSHISNNGRVTGYADSVKGRFTISRDNAKNILYLQMSGLRAEDTSLYYCARVHNAFCNSVSCVDAFDVWGQGTTVTVSSGGGGSGGGGSGGGGSDIVMTQTPSSLSASVGDRVTITCRASQRINSLLNWYQHKPGKPPKLLIYGASTLQSGVPSRFSGSESGADFTLTISSLQPEDVGTYYCQKYNSAPHTFGQGTRLEIK
notes: also called 抗RBD单链抗体No4; 抗RBD单链重组抗体No4
Question: How did the Kd turn out when B1 was run?
Answer: Its Kd is 1.61 nM.
